In article PMC9482650, “Quantitative fragmentomics allow affinity mapping of interactomes” (Nature Communications, 2022):
Residue numbers refer to the chain shown, from its start.

T1: FRMPD1, Q5SYB0
T1 sequence (Q5SYB0 52-145, limits assumed, looked up): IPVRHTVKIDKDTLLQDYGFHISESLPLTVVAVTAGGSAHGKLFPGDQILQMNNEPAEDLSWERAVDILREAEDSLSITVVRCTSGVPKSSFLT

T2: LIN7B, Q9HAP6
T2 sequence (Q9HAP6 88-185, limits assumed, looked up): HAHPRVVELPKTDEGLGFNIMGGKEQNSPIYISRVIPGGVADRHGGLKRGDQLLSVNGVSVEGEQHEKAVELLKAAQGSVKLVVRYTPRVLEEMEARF

T3: MPP6, Q9NZW5
T3 sequence (Q9NZW5 125-219, limits assumed, looked up): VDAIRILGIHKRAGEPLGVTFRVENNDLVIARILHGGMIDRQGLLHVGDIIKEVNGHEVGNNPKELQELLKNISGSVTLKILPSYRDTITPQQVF

T4: GRIP1_2, Q9Y3R0
T4 sequence (Q9Y3R0 145-248, limits assumed, looked up): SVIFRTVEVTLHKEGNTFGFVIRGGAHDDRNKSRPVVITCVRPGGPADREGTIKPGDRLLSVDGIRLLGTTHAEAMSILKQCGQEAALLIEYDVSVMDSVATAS

T5: APBA2_1, Q99767
T5 sequence (Q99767 563-664, limits assumed, looked up): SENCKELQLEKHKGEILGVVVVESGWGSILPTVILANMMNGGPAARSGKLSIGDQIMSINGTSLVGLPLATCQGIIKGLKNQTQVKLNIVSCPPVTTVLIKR

T6: DLG3_2, Q92796
T6 sequence (Q92796 221-321, limits assumed, looked up): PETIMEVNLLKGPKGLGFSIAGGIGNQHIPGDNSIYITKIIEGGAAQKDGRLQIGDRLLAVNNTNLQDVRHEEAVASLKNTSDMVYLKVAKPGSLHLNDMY

T7: PCLO, Q9Y6V0
T7 sequence (Q9Y6V0 4491-4600, limits assumed, looked up): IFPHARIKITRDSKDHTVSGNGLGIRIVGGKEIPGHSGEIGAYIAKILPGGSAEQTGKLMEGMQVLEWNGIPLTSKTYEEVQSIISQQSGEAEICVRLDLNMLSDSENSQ

T8: SNTG1, Q9NSN8
T8 sequence (Q9NSN8 52-150, limits assumed, looked up): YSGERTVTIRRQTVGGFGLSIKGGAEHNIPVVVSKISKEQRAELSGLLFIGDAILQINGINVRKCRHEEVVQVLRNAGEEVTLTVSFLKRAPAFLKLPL

T9: LIN7A, O14910
T9 sequence (O14910 103-200, limits assumed, looked up): T2 sequence (Q9HAP6 88-185, limits assumed, looked up) with A2S, I20V, V35I, D42E, Q65H, Q77K, G78D, R89K

T10: DVL3, Q92997
T10 sequence (Q92997 244-331, limits assumed, looked up): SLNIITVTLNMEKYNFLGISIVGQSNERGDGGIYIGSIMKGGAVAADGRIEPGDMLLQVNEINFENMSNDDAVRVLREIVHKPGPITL

T11: DLG3_1, Q92796
T11 sequence (Q92796 125-227, limits assumed, looked up): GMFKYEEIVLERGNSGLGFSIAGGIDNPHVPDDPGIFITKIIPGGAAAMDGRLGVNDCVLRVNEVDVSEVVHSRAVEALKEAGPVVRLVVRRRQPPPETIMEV

T12: PDZRN3_1, Q9UPQ7
T12 sequence (Q9UPQ7 244-349, limits assumed, looked up): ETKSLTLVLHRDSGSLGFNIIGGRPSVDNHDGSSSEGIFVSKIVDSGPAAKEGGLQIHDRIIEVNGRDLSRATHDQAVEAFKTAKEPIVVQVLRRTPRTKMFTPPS


What follows are binders tested against T1, FRMPD1, Q5SYB0 (assay: holdup assay). Settings: plain residues with an end cap or a label only (N-terminal biotin on a linker: ado-ado).
Design: key: below the threshold = too weak to quantify, mostly under pKd 3.1 to 4
With PSHPRLQTHV [KIRREL2, Q6UWL6] the pKd was “below the threshold”.

Each binder was assayed against T2, LIN7B, Q9HAP6 (assay: holdup assay). Settings: plain residues with an end cap or a label only (N-terminal biotin on a linker: ado-ado).
Design: key: below the threshold = too weak to quantify, mostly under pKd 3.1 to 4
PSHPRLQTHV [KIRREL2, Q6UWL6] was tested, and the pKd was “below the threshold”.

These binders were tested against HTRA2, O43464 (assay: holdup assay). Settings: plain residues with an end cap or a label only (N-terminal biotin on a linker: ado-ado).
HTRA2, O43464, sequence (O43464 355-458): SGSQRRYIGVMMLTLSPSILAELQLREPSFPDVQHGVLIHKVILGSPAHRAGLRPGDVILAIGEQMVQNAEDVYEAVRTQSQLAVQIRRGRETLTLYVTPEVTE
Design: key: below the threshold = too weak to quantify, mostly under pKd 3.1 to 4
For PSHPRLQTHV [KIRREL2, Q6UWL6], the pKd was “below the threshold”.

Each binder was assayed against T3, MPP6, Q9NZW5 (assay: holdup assay). Settings: plain residues with an end cap or a label only (N-terminal biotin on a linker: ado-ado).
Design: key: below the threshold = too weak to quantify, mostly under pKd 3.1 to 4
A pKd of 3.59 was found for PSHPRLQTHV [KIRREL2, Q6UWL6] in this work.

Each binder was assayed against T4, GRIP1_2, Q9Y3R0 (assay: holdup assay). Settings: plain residues with an end cap or a label only (N-terminal biotin on a linker: ado-ado).
Design: key: below the threshold = too weak to quantify, mostly under pKd 3.1 to 4
PSHPRLQTHV [KIRREL2, Q6UWL6] was tested, and the pKd was “below the threshold”.

What follows are binders tested against LNX1_3, Q8TBB1 (assay: holdup assay). Settings: plain residues with an end cap or a label only (N-terminal biotin on a linker: ado-ado).
LNX1_3, Q8TBB1, sequence (Q8TBB1 500-596): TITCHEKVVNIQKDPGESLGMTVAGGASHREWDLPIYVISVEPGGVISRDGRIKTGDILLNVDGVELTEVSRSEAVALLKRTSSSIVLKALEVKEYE
Design: key: below the threshold = too weak to quantify, mostly under pKd 3.1 to 4
For PSHPRLQTHV [KIRREL2, Q6UWL6], the pKd was “below the threshold”.

These binders were tested against T5, APBA2_1, Q99767 (assay: holdup assay). Settings: plain residues with an end cap or a label only (N-terminal biotin on a linker: ado-ado).
Design: key: below the threshold = too weak to quantify, mostly under pKd 3.1 to 4
PSHPRLQTHV [KIRREL2, Q6UWL6] was tested, and the pKd was “below the threshold”.

What follows are binders tested against TJP1_3, Q07157 (assay: holdup assay). Settings: plain residues with an end cap or a label only (N-terminal biotin on a linker: ado-ado).
TJP1_3, Q07157, sequence (Q07157 416-512): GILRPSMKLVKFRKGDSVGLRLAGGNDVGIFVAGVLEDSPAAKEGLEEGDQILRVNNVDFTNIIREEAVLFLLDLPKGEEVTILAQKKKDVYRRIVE
Design: key: below the threshold = too weak to quantify, mostly under pKd 3.1 to 4
PSHPRLQTHV [KIRREL2, Q6UWL6] was tested, and the pKd was “below the threshold”.

What follows are binders tested against T6, DLG3_2, Q92796 (assay: holdup assay). Settings: plain residues with an end cap or a label only (N-terminal biotin on a linker: ado-ado).
Design: key: below the threshold = too weak to quantify, mostly under pKd 3.1 to 4
A pKd of 4.6 was found for PSHPRLQTHV [KIRREL2, Q6UWL6] in this work.

Each binder was assayed against FRMPD2_2, Q68DX3 (assay: holdup assay). Settings: plain residues with an end cap or a label only (N-terminal biotin on a linker: ado-ado).
FRMPD2_2, Q68DX3, sequence (Q68DX3 944-1038): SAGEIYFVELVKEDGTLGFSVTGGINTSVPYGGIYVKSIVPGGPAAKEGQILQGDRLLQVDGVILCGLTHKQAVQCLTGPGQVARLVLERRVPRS
Design: key: below the threshold = too weak to quantify, mostly under pKd 3.1 to 4
For PSHPRLQTHV [KIRREL2, Q6UWL6], the pKd was “below the threshold”.

What follows are binders tested against T7, PCLO, Q9Y6V0 (assay: holdup assay). Settings: plain residues with an end cap or a label only (N-terminal biotin on a linker: ado-ado).
Design: key: below the threshold = too weak to quantify, mostly under pKd 3.1 to 4
With PSHPRLQTHV [KIRREL2, Q6UWL6] the pKd was “below the threshold”.

The binders below were run against IL16_4, Q14005 (assay: holdup assay). Settings: plain residues with an end cap or a label only (N-terminal biotin on a linker: ado-ado).
IL16_4, Q14005, sequence (Q14005 1229-1329): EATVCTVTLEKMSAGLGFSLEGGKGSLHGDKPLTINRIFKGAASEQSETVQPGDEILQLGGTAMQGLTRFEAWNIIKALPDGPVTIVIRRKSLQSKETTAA
Design: key: below the threshold = too weak to quantify, mostly under pKd 3.1 to 4
In the case of PSHPRLQTHV [KIRREL2, Q6UWL6], the pKd is reported as “below the threshold”.

These binders were tested against PDLIM1, O00151 (assay: holdup assay). Settings: plain residues with an end cap or a label only (N-terminal biotin on a linker: ado-ado).
PDLIM1, O00151, sequence (O00151 1-87): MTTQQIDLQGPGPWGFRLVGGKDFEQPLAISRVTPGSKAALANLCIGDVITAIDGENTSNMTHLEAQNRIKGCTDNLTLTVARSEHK
Design: key: below the threshold = too weak to quantify, mostly under pKd 3.1 to 4
For PSHPRLQTHV [KIRREL2, Q6UWL6], the pKd was “below the threshold”.

What follows are binders tested against T8, SNTG1, Q9NSN8 (assay: holdup assay). Settings: plain residues with an end cap or a label only (N-terminal biotin on a linker: ado-ado).
Design: key: below the threshold = too weak to quantify, mostly under pKd 3.1 to 4
With PSHPRLQTHV [KIRREL2, Q6UWL6] the pKd was “below the threshold”.

These binders were tested against LAP2, Q96RT1 (assay: holdup assay). Settings: plain residues with an end cap or a label only (N-terminal biotin on a linker: ado-ado).
LAP2, Q96RT1, sequence (Q96RT1 other isoform, or with tags, fused parts or gaps): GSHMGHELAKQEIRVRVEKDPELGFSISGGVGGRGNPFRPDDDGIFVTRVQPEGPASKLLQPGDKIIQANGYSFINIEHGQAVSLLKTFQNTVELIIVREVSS
Design: key: below the threshold = too weak to quantify, mostly under pKd 3.1 to 4
For PSHPRLQTHV [KIRREL2, Q6UWL6], the pKd was “below the threshold”.

These binders were tested against SCRIB_3, Q14160 (assay: holdup assay). Settings: plain residues with an end cap or a label only (N-terminal biotin on a linker: ado-ado).
SCRIB_3, Q14160, sequence (Q14160 999-1103): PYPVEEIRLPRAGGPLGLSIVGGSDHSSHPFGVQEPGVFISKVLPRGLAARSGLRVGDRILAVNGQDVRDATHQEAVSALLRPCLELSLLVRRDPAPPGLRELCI
Design: key: below the threshold = too weak to quantify, mostly under pKd 3.1 to 4
A pKd of 4.26 was found for PSHPRLQTHV [KIRREL2, Q6UWL6] in this work.

What follows are binders tested against HTRA1, Q92743 (assay: holdup assay). Settings: plain residues with an end cap or a label only (N-terminal biotin on a linker: ado-ado).
HTRA1, Q92743, sequence (Q92743 360-477): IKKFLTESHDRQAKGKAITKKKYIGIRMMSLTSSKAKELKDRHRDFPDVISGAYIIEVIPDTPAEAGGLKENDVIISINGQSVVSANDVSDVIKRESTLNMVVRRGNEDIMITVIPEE
Design: key: below the threshold = too weak to quantify, mostly under pKd 3.1 to 4
PSHPRLQTHV [KIRREL2, Q6UWL6] was tested, and the pKd was “below the threshold”.

These binders were tested against T9, LIN7A, O14910 (assay: holdup assay). Settings: plain residues with an end cap or a label only (N-terminal biotin on a linker: ado-ado).
Design: key: below the threshold = too weak to quantify, mostly under pKd 3.1 to 4
In the case of PSHPRLQTHV [KIRREL2, Q6UWL6], the pKd is reported as “below the threshold”.

The binders below were run against GORASP2, Q9H8Y8 (assay: holdup assay). Settings: plain residues with an end cap or a label only (N-terminal biotin on a linker: ado-ado).
Design: key: below the threshold = too weak to quantify, mostly under pKd 3.1 to 4
A pKd of 3.55 was found for PSHPRLQTHV [KIRREL2, Q6UWL6] in this work.

What follows are binders tested against ARHGEF12, Q9NZN5-2 (assay: holdup assay). Settings: plain residues with an end cap or a label only (N-terminal biotin on a linker: ado-ado).
ARHGEF12, Q9NZN5-2, sequence (Q9NZN5 other isoform, or with tags, fused parts or gaps): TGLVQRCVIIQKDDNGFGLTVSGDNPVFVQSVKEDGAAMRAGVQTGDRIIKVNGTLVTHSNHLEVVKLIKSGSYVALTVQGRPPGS
Design: key: below the threshold = too weak to quantify, mostly under pKd 3.1 to 4
A pKd of 4.26 was found for PSHPRLQTHV [KIRREL2, Q6UWL6] in this work.

Each binder was assayed against T10, DVL3, Q92997 (assay: holdup assay). Settings: plain residues with an end cap or a label only (N-terminal biotin on a linker: ado-ado).
Design: key: below the threshold = too weak to quantify, mostly under pKd 3.1 to 4
PSHPRLQTHV [KIRREL2, Q6UWL6] was tested, and the pKd was “below the threshold”.

Each binder was assayed against NHERF4_1, Q86UT5-2 (assay: holdup assay). Settings: plain residues with an end cap or a label only (N-terminal biotin on a linker: ado-ado).
NHERF4_1, Q86UT5-2, sequence (Q86UT5 other isoform, or with tags, fused parts or gaps): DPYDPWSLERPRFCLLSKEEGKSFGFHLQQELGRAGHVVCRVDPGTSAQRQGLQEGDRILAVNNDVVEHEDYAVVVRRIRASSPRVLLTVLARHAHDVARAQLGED
Design: key: below the threshold = too weak to quantify, mostly under pKd 3.1 to 4
A pKd of 3.62 was found for PSHPRLQTHV [KIRREL2, Q6UWL6] in this work.

These binders were tested against GRID2IP_1, A4D2P6 (assay: holdup assay). Settings: plain residues with an end cap or a label only (N-terminal biotin on a linker: ado-ado).
GRID2IP_1, A4D2P6, sequence (A4D2P6 1-87): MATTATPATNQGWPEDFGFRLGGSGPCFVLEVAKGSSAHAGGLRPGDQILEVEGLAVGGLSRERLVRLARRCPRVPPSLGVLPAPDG
Design: key: below the threshold = too weak to quantify, mostly under pKd 3.1 to 4
For PSHPRLQTHV [KIRREL2, Q6UWL6], the pKd was “below the threshold”.

The binders below were run against T11, DLG3_1, Q92796 (assay: holdup assay). Settings: plain residues with an end cap or a label only (N-terminal biotin on a linker: ado-ado).
Design: key: below the threshold = too weak to quantify, mostly under pKd 3.1 to 4
A pKd of 3.55 was found for PSHPRLQTHV [KIRREL2, Q6UWL6] in this work.

These binders were tested against T12, PDZRN3_1, Q9UPQ7 (assay: holdup assay). Settings: plain residues with an end cap or a label only (N-terminal biotin on a linker: ado-ado).
Design: key: below the threshold = too weak to quantify, mostly under pKd 3.1 to 4
With PSHPRLQTHV [KIRREL2, Q6UWL6] the pKd was “below the threshold”.

What follows are binders tested against Inadl_8, Q8NI35 (assay: holdup assay). Settings: plain residues with an end cap or a label only (N-terminal biotin on a linker: ado-ado).
Inadl_8, Q8NI35, sequence (Q8NI35 1425-1530): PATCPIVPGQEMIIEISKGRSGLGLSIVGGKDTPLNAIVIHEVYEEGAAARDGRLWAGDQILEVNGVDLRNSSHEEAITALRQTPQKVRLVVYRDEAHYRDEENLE
Design: key: below the threshold = too weak to quantify, mostly under pKd 3.1 to 4
A pKd of 3.61 was found for PSHPRLQTHV [KIRREL2, Q6UWL6] in this work.
